Laboratory results: patent US20080206139A1, “DELIVERY SYSTEM FOR DIAGNOSTIC AND THERAPEUTIC AGENTS” (The Penn State Research Foundation, priority 2006, published 2008)

Experiments:
[1] = tested on: U251 glioma cells; assay: Flow cytometry of intracellular doxorubicin fluorescence, with or without Pgp inhibitor cyclosporine A; assay type: cell-based, Human; conditions: 20 μM drug, 2 h
Protocol: Flow cytometry: Flow cytometry was used to measure total intracellular doxorubicin fluorescence. In this report we refer to fluorescence intensity as intracellular drug content. 1×10^6 cells were exposed to 20 μM of drug as (a) free DXR (b) DXR encapsulated IL13 conjugated liposomes (c) DXR encapsulated unconjugated liposomes for 2 h. All drug treatments and post treatment incubations were performed in complete growth medium. The cells were washed to remove any free adherent DXR using PBS and centrifuged. Cells were released from tissue culture dishes with 0.05% trypsin/0.02% EDTA followed by PBS washing (centrifugation, 5 min 500 g) and resuspended in PBS for flow cytometry assay. The intracellular accumulation of inherently fluorescent doxorubicin was evaluated using a fluorescence activated cell analyzer. A single 15 mW argon ion laser beam (488 nm) was used to excite the fluorescence of DXR. A total of 10000 cells were analyzed for each histogram. Experiments were repeated 3 times and the fluorescence intensities of DXR were expressed in arbitrary units.
Effect of Pgp inhibitor on the internalization of IL13 conjugated liposomes in the glioma cells: About 50000 U251 glioma cells were plated in a small petridish and were exposed to either IL13 conjugated liposomes carrying 20 μM of doxorubicin or the same concentration of free doxorubicin (20 μM) for 2 hours. […]

[2] = target: T1, IL-13Rα2 (Homo sapiens, UniProt Q14627); assay: Cytotoxicity neutralization assay with IL-13 and its mutants against cytotoxin IL13-PE38QQR; assay type: cell-based; conditions: 100 ng/ml protein; cytotoxin IL13-PE38QQR fixed at 10 ng/ml
T1 sequence (Q14627 27-380): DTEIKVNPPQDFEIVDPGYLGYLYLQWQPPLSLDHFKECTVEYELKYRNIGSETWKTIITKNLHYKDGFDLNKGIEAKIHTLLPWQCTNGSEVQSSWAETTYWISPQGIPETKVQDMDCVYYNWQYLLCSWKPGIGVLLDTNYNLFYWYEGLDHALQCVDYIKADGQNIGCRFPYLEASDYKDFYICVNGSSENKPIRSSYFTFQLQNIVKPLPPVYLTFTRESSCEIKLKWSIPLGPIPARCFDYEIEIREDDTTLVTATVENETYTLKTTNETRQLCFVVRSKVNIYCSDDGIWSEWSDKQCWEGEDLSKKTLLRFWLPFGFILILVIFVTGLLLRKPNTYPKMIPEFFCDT
Protocol: Additionally, position K105 of this region of IL-13 is mutated into a variety of amino acids and the mutants' cytotoxic neutralization potential and binding affinity towards IL-13Rα2 is determined. […] In this titered cytotoxicity neutralization experiment, higher neutralization efficiency against the IL13-PE38QQR cytotoxin, for the mutant IL13.K105R is observed (Madhankumar A. B., Mintz, A., and Debinski, W. (2004) Neoplasia (New York) 6, 15-22). IL13.K105R is able to neutralize the cytotoxicity to 99% at 100 ng/ml concentration when compared with its blocking efficiency at 1000 ng/ml concentration. However, the wild type IL-13 and the mutant IL13.K106R and IL13.R109K have only 86.5%, 86.7% and 80.7% of the cytotoxicity neutralization efficiency with respect to their neutralization efficiency at 1000 ng/ml concentration. […] The high affinity mutant IL13.K105R is used as a ligand to conjugate to liposomes in order to better target the glioma associated IL-13Rα2 receptor.

## COc1cccc2c1C(=O)c1c(O)c3c(c(O)c1C2=O)C[C@@](O)(C(=O)CO)C[C@@H]3O[C@H]1C[C@H](N)[C@H](O)[C@H](C)O1 [free DXR, doxorubicin]
[1]
  intracellular doxorubicin fluorescence (flow cytometry curve shift): increase in the cell fluorescence

## IL13.K106R: mutant of IL-13
[2]
  cytotoxicity neutralization efficiency with respect to neutralization efficiency at 1000 ng/ml: 86.7%

## wild type IL-13: human cytokine interleukin-13, expressed in E. coli as His-tagged protein
[2]
  cytotoxicity neutralization efficiency with respect to neutralization efficiency at 1000 ng/ml: 86.5%
